Measurements taken from the supplement of paper PMC10567573.

B1: RHOBTB3 (parent)
chain: GGADIIVIKYNVNDKFSFHEVKDN

Variants of: B1
Experiment: protein stability index of a GFP-peptide fusion (GPS, HEK-293T) (PSI 1-6); higher = more stable
Conditions: c terminus: a fixed tail appended
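Further: lentivirally expressed fusions sorted by FACS into six bins by GFP to DsRed ratio, PSI derived from sequencing read proportions per bin multiplied by bin number.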

In order of falling protein stability index:
1. GGADIIVIKYKVNDKFSFHEVKDN  4.82
2. GGADIIVIKYNVNVKFSFHEVKDN  4.54
3. GGADIIVIKYNVNIKFSFHEVKDN  4.53
4. GGADIIVIKYNVNDGFSFHEVKDN  4.47
5. GGADIIVIKYNVNDCFSFHEVKDN  4.37
6. GGADIIVIKINVNDKFSFHEVKDN  4.15
7. GGADIIVIKYNVNDDFSFHEVKDN  4.13
8. GGADIIVIKYNVNDKFSRHEVKDN  4.04
9. GGADIIVIKYNVNDKWSFHEVKDN  4.02
10. GGADIIVIKYVVNDKFSFHEVKDN  3.99
11. GGADIIVIKYNVNDVFSFHEVKDN  3.95
12. GGADIIVIKYNVVDKFSFHEVKDN  3.83
13. GGADIIVIKYNVNDNFSFHEVKDN  3.83
14. GGADIIVIKLNVNDKFSFHEVKDN  3.82
15. GGADIIVIKYNVNDKFSFHCVKDN  3.82
16. GGADIIVIKYNVNDKFSFNEVKDN  3.79
17. GGADIIVIKYMVNDKFSFHEVKDN  3.72
18. GGADIIVIKYNVNDKFSFMEVKDN  3.71
19. GGADIIVIKDNVNDKFSFHEVKDN  3.68
20. GGADIIVIKYNVADKFSFHEVKDN  3.68
21. GGADIIVIKYNVNFKFSFHEVKDN  3.63
22. GGADIIVIKYWVNDKFSFHEVKDN  3.58
23. GGADIIVIKYNVNDKFSFQEVKDN  3.57
24. GGADIIVIKYNWNDKFSFHEVKDN  3.56
25. GGADIIVIKYNVNDKFAFHEVKDN  3.54
26. GGADIIVIKYNVNDLFSFHEVKDN  3.48
27. GGADIIVIKYNVFDKFSFHEVKDN  3.47
28. GGADIIVIKYNVNDKFSAHEVKDN  3.47
29. GGADIIVIKYQVNDKFSFHEVKDN  3.46
30. GGADIIVIKYNVNDKFSFHDVKDN  3.45
31. GGADIIVIKCNVNDKFSFHEVKDN  3.4
32. GGADIIVIKYNVNSKFSFHEVKDN  3.4
33. GGADIIVIKYNVNYKFSFHEVKDN  3.38
34. GGADIIVIKYNVNDKFSFHNVKDN  3.38
35. GGADIIVIKYNVNAKFSFHEVKDN  3.34
36. GGADIIVIKYNVNDKFSFFEVKDN  3.33
37. GGADIIVIKYNINDKFSFHEVKDN  3.31
38. GGADIIVIKYNVQDKFSFHEVKDN  3.3
39. GGADIIVIKYNVNDKFSFYEVKDN  3.29
40. GGADIIVIKWNVNDKFSFHEVKDN  3.26
41. GGADIIVIKVNVNDKFSFHEVKDN  3.23
42. GGADIIVIKYPVNDKFSFHEVKDN  3.2
43. GGADIIVIKYNVPDKFSFHEVKDN  3.19
44. GGADIIVIKYNVNDWFSFHEVKDN  3.18
45. GGADIIVIKYNVNDKFKFHEVKDN  3.18
46. GGADIIVIKYNVNDKFSFCEVKDN  3.17
47. GGADIIVIKYNVNDKFSFHEAKDN  3.15
48. GGADIIVIKYNVNKKFSFHEVKDN  3.14
49. GGADIIVIKYNVNDKFNFHEVKDN  3.14
50. GGADIIVIKYNVNDKSSFHEVKDN  3.13
51. GGADIIVIKYNVNDKFSCHEVKDN  3.13
52. GGADIIVIKYNVNNKFSFHEVKDN  3.12
53. GGADIIVIKYGVNDKFSFHEVKDN  3.11
54. GGADIIVIKYHVNDKFSFHEVKDN  3.1
55. GGADIIVIKYNVNDKFFFHEVKDN  3.05
56. GGADIIVIKYNVNHKFSFHEVKDN  2.94
57. GGADIIVIKYNVNDKFEFHEVKDN  2.94
58. GGADIIVIKYNVIDKFSFHEVKDN  2.93
59. GGADIIVIKYNVNDKFSFHRVKDN  2.93
60. GGADIIVIKYNVKDKFSFHEVKDN  2.92
61. GGADIIVIKYNVNDKFSFHMVKDN  2.91
62. GGADIIVIKYNVNDKISFHEVKDN  2.88
63. GGADIIVIKYNVLDKFSFHEVKDN  2.87
64. GGADIIVIKYNVNDHFSFHEVKDN  2.87
65. GGADIIVIKYNANDKFSFHEVKDN  2.83
66. GGADIIVIKYNVNDKFSFREVKDN  2.82
67. GGADIIVIKYNRNDKFSFHEVKDN  2.8
68. GGADIIVIKYNVNEKFSFHEVKDN  2.8
69. GGADIIVIKYNVNDFFSFHEVKDN  2.8
70. GGADIIVIKYNVNDKFSFHGVKDN  2.78
71. GGADIIVIKPNVNDKFSFHEVKDN  2.77
72. GGADIIVIKYNVNDKFSFHSVKDN  2.76
73. GGADIIVIKYNVNDYFSFHEVKDN  2.75
74. GGADIIVIKYNVNDKFSFHFVKDN  2.75
75. GGADIIVIKYNVNDKGSFHEVKDN  2.74
76. GGADIIVIKYNTNDKFSFHEVKDN  2.73
77. GGADIIVIKYNVNDSFSFHEVKDN  2.73
78. GGADIIVIKYNVNDKFSYHEVKDN  2.72
79. GGADIIVIKYNVNDKFSFSEVKDN  2.72
80. GGADIIVIKYNVNDKFSFVEVKDN  2.72
81. GGADIIVIKYNVEDKFSFHEVKDN  2.71
82. GGADIIVIKYNGNDKFSFHEVKDN  2.7
83. GGADIIVIKYNVNDKFHFHEVKDN  2.69
84. GGADIIVIKYNMNDKFSFHEVKDN  2.67
85. GGADIIVIKYNVNTKFSFHEVKDN  2.67
86. GGADIIVIKYNVNDKFSFHWVKDN  2.67
87. GGADIIVIKYNNNDKFSFHEVKDN  2.66
88. GGADIIVIKYNVNDKFIFHEVKDN  2.65
89. GGADIIVIKYNVNDKFDFHEVKDN  2.64
90. GGADIIVIKYNVNWKFSFHEVKDN  2.63
91. GGADIIVIKYNVNDKFSTHEVKDN  2.63
92. GGADIIVIKYNVNDKYSFHEVKDN  2.62
93. GGADIIVIKYNVNDKFSFHIVKDN  2.61
94. GGADIIVIKYNVNDPFSFHEVKDN  2.59
95. GGADIIVIKYNVHDKFSFHEVKDN  2.57
96. GGADIIVIKYNVNDKPSFHEVKDN  2.55
97. GGADIIVIKYNVNDKFSFGEVKDN  2.55
98. GGADIIVIKYNVNDKFSFPEVKDN  2.55
99. GGADIIVIKYNVNDKFGFHEVKDN  2.54
100. GGADIIVIKYNVNDKFPFHEVKDN  2.54
101. GGADIIVIKRNVNDKFSFHEVKDN  2.53
102. GGADIIVIKYNVNDKFSLHEVKDN  2.53
103. GGADIIVIKYNVNDKFSFTEVKDN  2.52
104. GGADIIVIKYNVNDKFSFEEVKDN  2.5
105. GGADIIVIKYNVNDKFSVHEVKDN  2.49
106. GGADIIVIKYRVNDKFSFHEVKDN  2.45
107. GGADIIVIKYNVNDKFSFKEVKDN  2.44
108. GGADIIVIKYTVNDKFSFHEVKDN  2.43
109. GGADIIVIKYNYNDKFSFHEVKDN  2.38
110. GGADIIVIKYAVNDKFSFHEVKDN  2.36
111. GGADIIVIKYNVNRKFSFHEVKDN  2.36
112. GGADIIVIKYNVNDKFQFHEVKDN  2.36
113. GGADIIVIKYNVNDKFRFHEVKDN  2.35
114. GGADIIVIKYNVNDKTSFHEVKDN  2.33
115. GGADIIVIKYNQNDKFSFHEVKDN  2.3
116. GGADIIVIKENVNDKFSFHEVKDN  2.29
117. GGADIIVIKYDVNDKFSFHEVKDN  2.29
118. GGADIIVIKYNVNDKFCFHEVKDN  2.27
119. GGADIIVIKYNVNDKFSFAEVKDN  2.27
120. GGADIIVIKFNVNDKFSFHEVKDN  2.26
121. GGADIIVIKYNVNDKFSDHEVKDN  2.26
122. GGADIIVIKYNVNDKFSFHYVKDN  2.26
123. GGADIIVIKYNVNDKFTFHEVKDN  2.25
124. GGADIIVIKYIVNDKFSFHEVKDN  2.24
125. GGADIIVIKYNLNDKFSFHEVKDN  2.24
126. GGADIIVIKYNVNDKASFHEVKDN  2.24
127. GGADIIVIKYSVNDKFSFHEVKDN  2.23
128. GGADIIVIKYNVNDKCSFHEVKDN  2.2
129. GGADIIVIKGNVNDKFSFHEVKDN  2.19
130. GGADIIVIKYNPNDKFSFHEVKDN  2.13
131. GGADIIVIKYNVNDQFSFHEVKDN  2.13
132. GGADIIVIKYNVNDKESFHEVKDN  2.12
133. GGADIIVIKYNVNDKFSFHVVKDN  2.1
134. GGADIIVIKYNVNDKFSWHEVKDN  2.08
135. GGADIIVIKYNVNDKDSFHEVKDN  2.07
136. GGADIIVIKYNVNDKMSFHEVKDN  2.04
137. GGADIIVIKNNVNDKFSFHEVKDN  2.03
138. GGADIIVIKYNVNDEFSFHEVKDN  2.03
139. GGADIIVIKYNVNDKFSGHEVKDN  2.03
140. GGADIIVIKYNVNDKFSFHLVKDN  2.02
141. GGADIIVIKYNVRDKFSFHEVKDN  1.99
142. GGADIIVIKYNVNDKFSQHEVKDN  1.99
143. GGADIIVIKYNVNDKVSFHEVKDN  1.98
144. GGADIIVIKYFVNDKFSFHEVKDN  1.97
145. GGADIIVIKYNVWDKFSFHEVKDN  1.96
146. GGADIIVIKYNVNDKFSFHECKDN  1.96
147. GGADIIVIKYNDNDKFSFHEVKDN  1.95
148. GGADIIVIKYNVNDKFSIHEVKDN  1.95
149. GGADIIVIKYNVNDKFSPHEVKDN  1.95
150. GGADIIVIKYNVNDKFSFDEVKDN  1.95
151. GGADIIVIKMNVNDKFSFHEVKDN  1.94
152. GGADIIVIKHNVNDKFSFHEVKDN  1.92
153. GGADIIVIKTNVNDKFSFHEVKDN  1.92
154. GGADIIVIKYNHNDKFSFHEVKDN  1.92
155. GGADIIVIKYNSNDKFSFHEVKDN  1.9
156. GGADIIVIKYNVNDKFSFHHVKDN  1.9
157. GGADIIVIKSNVNDKFSFHEVKDN  1.88
158. GGADIIVIKYNVDDKFSFHEVKDN  1.88
159. GGADIIVIKYNVNDKFSFHKVKDN  1.88
160. GGADIIVIKYNVNDKFSMHEVKDN  1.87
161. GGADIIVIKYNVNDKFSSHEVKDN  1.86
162. GGADIIVIKYNVNDKQSFHEVKDN  1.85
163. GGADIIVIKYNVNDKNSFHEVKDN  1.84
164. GGADIIVIKKNVNDKFSFHEVKDN  1.82
165. GGADIIVIKYNKNDKFSFHEVKDN  1.82
166. GGADIIVIKYNVNDKFSKHEVKDN  1.78
167. GGADIIVIKYEVNDKFSFHEVKDN  1.76
168. GGADIIVIKYNVNDKFSEHEVKDN  1.76
169. GGADIIVIKYNVNDKFSHHEVKDN  1.76
170. GGADIIVIKYNVNDKKSFHEVKDN  1.73
171. GGADIIVIKYNVNDKFVFHEVKDN  1.73
172. GGADIIVIKYNENDKFSFHEVKDN  1.72
173. GGADIIVIKYNVNGKFSFHEVKDN  1.72
174. GGADIIVIKYNVYDKFSFHEVKDN  1.67
175. GGADIIVIKYNVNDKLSFHEVKDN  1.63
176. GGADIIVIKYNVNDKFYFHEVKDN  1.63
177. GGADIIVIKQNVNDKFSFHEVKDN  1.62
178. GGADIIVIKYNVNMKFSFHEVKDN  1.62
179. GGADIIVIKYNVNDKRSFHEVKDN  1.6
180. GGADIIVIKYNVTDKFSFHEVKDN  1.57
181. GGADIIVIKYNVNDKFSFHAVKDN  1.55
182. GGADIIVIKYNVNDKFSFIEVKDN  1.54
183. GGADIIVIKYNVNDKHSFHEVKDN  1.53
184. GGADIIVIKYNVNDKFSFHTVKDN  1.52
185. GGADIIVIKYNVNDKFSNHEVKDN  1.39
186. GGADIIVIKYNVNDKFSFHPVKDN  1.33
187. GGADIIVIKYNVNDKFSFHEDKDN  1.3
188. GGADIIVIKANVNDKFSFHEVKDN  1.27
